{"source": "paper PMC4745115", "proteins": {"B1": {"name": "BetP (Corynebacterium glutamicum ATCC 13032; G153D) (protein)", "chain": "MTTSDPNPKPIVEDAQPEQITATEELAGLLENPTNLEGKLADAEEEIILEGEDTQASLNWSVIVPALVIVLATVVWGIGFKDSFTNFASSALSAVVDNLGWAFILFGTVFVFFIVVIAASKFGTIRLGRIDEAPEFRTVSWISMMFAAGMGIDLMFYGTTEPLTFYRNGVPGHDEHNVGVAMSTTMFHWTLHPWAIYAIVGLAIAYSTFRVGRKQLLSSAFVPLIGEKGAEGWLGKLIDILAIIATVFGTACSLGLGALQIGAGLSAANIIEDPSDWTIVGIVSVLTLAFIFSAISGVGKGIQYLSNANMVLAALLAIFVFVVGPTVSILNLLPGSIGNYLSNFFQMAGRTAMSADGTAGEWLGSWTIFYWAWWISWSPFVGMFLARISRGRSIREFILGVLLVPAGVSTVWFSIFGGTAIVFEQNGESIWGDGAAEEQLFGLLHALPGGQIMGIIAMILLGTFFITSADSASTVMGTMSQHGQLEANKWVTAAWGVATAAIGLTLLLSGGDNALSNLQNVTIVAATPFLFVVIGLMFALVKDLSNDVIYLEYREQQRFNARLARERRVHNEHRKRELAAKRRRERKASGAGKRR"}}, "substrate": "C[N+](C)(C)CCO", "assay": "SSM-based electrophysiology, peak currents, proteoliposomes", "type": "biochemical, Corynebacterium glutamicum", "settings": "500 mM NaCl, 250 mM KPi pH 7.5, 22 °C"}
{"protein": "B1", "values": [{"measurement": "Km", "value": "135 ± 28", "unit": "µM"}]}
